The target of assay [1] is T1, human podocalyxin (human, UniProt O00592 23-558).
T1 construct: also called hPodo; hPodocalyxin
T1 sequence: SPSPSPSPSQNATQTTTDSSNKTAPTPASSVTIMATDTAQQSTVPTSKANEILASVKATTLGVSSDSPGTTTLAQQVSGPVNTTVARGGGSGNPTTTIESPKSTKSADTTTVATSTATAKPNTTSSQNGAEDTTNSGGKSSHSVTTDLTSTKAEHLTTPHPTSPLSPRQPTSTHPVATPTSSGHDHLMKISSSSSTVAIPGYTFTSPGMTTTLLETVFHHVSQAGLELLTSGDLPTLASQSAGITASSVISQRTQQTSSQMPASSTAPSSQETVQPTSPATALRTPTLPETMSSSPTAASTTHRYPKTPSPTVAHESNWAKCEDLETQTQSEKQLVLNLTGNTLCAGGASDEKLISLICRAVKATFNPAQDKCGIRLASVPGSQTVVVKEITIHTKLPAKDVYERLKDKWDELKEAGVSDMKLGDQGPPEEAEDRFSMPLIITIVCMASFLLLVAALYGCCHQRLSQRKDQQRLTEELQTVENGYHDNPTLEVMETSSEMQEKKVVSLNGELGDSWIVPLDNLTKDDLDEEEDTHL
Kind of assay: flow cytometry, control antibody, A172 cells. (In general: A flow cytometer gives signals particle by particle.)

The target in assay [2] is T1, human podocalyxin. Kind of assay: flow cytometry, control antibody, MDA-MB-231 cells.
The target in assay [3] is T1, human podocalyxin. Briefly: flow cytometry, control antibody, SKOV3 cells.
In assay [4] the target is T1, human podocalyxin. Kind of assay: flow cytometry, control antibody, T47-D cells.
The target in assay [5] is T1, human podocalyxin. Briefly: flow cytometry, control antibody, OVCAR10 cells.
In assay [6] the target is T1, human podocalyxin. Briefly: flow cytometry, control antibody, MCF7 cells.
The target of assay [7] is T1, human podocalyxin. Briefly: flow cytometry, control antibody, CaOV3 cells.
In assay [8] the target is T1, human podocalyxin. Briefly: flow cytometry, control antibody, HUVEC cells.
Assay [9] has as its target T1, human podocalyxin. Briefly: flow cytometry, control antibody, 293 HEK cells.
The target of assay [10] is T1, human podocalyxin. Kind of assay: flow cytometry, control antibody, OVCAR3 cells.
The target in assay [11] is T1, human podocalyxin. Briefly: cross competition FACS, MDA-MB-231 cells; row antibody (isotype control) unlabelled 25 ug/mL first; competitor (detected): B-mlgG1 5 ug/mL (control).
The target in assay [12] is T1, human podocalyxin. Briefly: cross competition FACS, MDA-MB-231 cells; row antibody (isotype control) unlabelled 25 ug/mL first; competitor (detected): B-3G2.2 5 ug/mL.
For assay [13], the target named is T1, human podocalyxin. Briefly: cross competition FACS, MDA-MB-231 cells; FACS Buffer row (no unlabelled antibody); B-mlgG1 5 ug/mL (control).
The target of assay [14] is T1, human podocalyxin. Kind of assay: cross competition FACS, MDA-MB-231 cells; row antibody (isotype control) unlabelled 25 ug/mL first; competitor (detected): B-Ova 12 5 ug/mL (control).
The target in assay [15] is T1, human podocalyxin. Briefly: cross competition FACS, MDA-MB-231 cells; row antibody (isotype control) unlabelled 25 ug/mL first; competitor (detected): biotinylated Rb/Hu Podo83 5 ug/mL.
Assay [16] has as its target T1, human podocalyxin. Briefly: flow cytometry, control, Neat, hPodo/MDA-MB-231 transient transfectants.
Assay [17] addresses T1, human podocalyxin. Kind of assay: flow cytometry, control, 1:5, MDA-MB-231 cells.
Assay [18] addresses T1, human podocalyxin. Kind of assay: flow cytometry, control, 1:125, hPodo/MDA-MB-231 transient transfectants.
Assay [19] concerns the target T1, human podocalyxin. Briefly: flow cytometry, control, 1:125, MDA-MB-231 cells.
Assay [20] deals with T1, human podocalyxin. Kind of assay: flow cytometry, control, 1:5, hPodo/MDA-MB-231 transient transfectants.
The target in assay [21] is T1, human podocalyxin. Briefly: flow cytometry, control, 2:15 (so in the source), hPodo/MDA-MB-231 transient transfectants.
Assay [22] addresses T1, human podocalyxin. Briefly: flow cytometry, control, 2:15 (so in the source), MDA-MB-231 cells.
Assay [23] addresses T1, human podocalyxin. Kind of assay: flow cytometry, control, Neat, MDA-MB-231 cells.
The target of assay [24] is T1, human podocalyxin. Briefly: flow cytometry, well H03 (right column, cell type not labelled: MDA-MB-231 or MDA-MB-231/hPodo); vertical gate at FL4-H about 10^3.2; the gate differs from that of the Ab-1 panels.
The target in assay [25] is T1, human podocalyxin. Kind of assay: flow cytometry, well H01 (left column, cell type not labelled: MDA-MB-231 or MDA-MB-231/hPodo); vertical gate at FL4-H about 10^3.2, cutting the right edge of the control population; the gate differs from that of the Ab-1 panels.

For MsIgG2a (antibody), the Live cell GeoMean FL (geometric mean fluorescence units) with human podocalyxin [1] is 797; in the assay with human podocalyxin [2] it was 478; with human podocalyxin [3], 485; with human podocalyxin [4] it was 787; with human podocalyxin [5] it was 618; in the assay with human podocalyxin [6] it was 1130. Besides, the Live cell GeoMean FL (geometric mean fluorescence units) in the assay with human podocalyxin [7] came to 892; with human podocalyxin [8], 484; with human podocalyxin [9], 556; with human podocalyxin [10], 708.

Turning to mlgG1 (antibody), the FACS signal of the biotinylated antibody named under assay was 414 in the assay with human podocalyxin [11], 26600 in the assay with human podocalyxin [12], 458 in the assay with human podocalyxin [14] and 124000 with human podocalyxin [15]. Moreover, the FACS signal of the biotinylated antibody with human podocalyxin [13] stood at 419.

Regarding Rb IgG (antibody), the flow cytometry fluorescence (name not given) with human podocalyxin [16] came to 762; in the assay with human podocalyxin [17] it was 467; with human podocalyxin [18], 645; in the assay with human podocalyxin [19], 431; in the assay with human podocalyxin [20], 660; with human podocalyxin [21] it was 617. Further, the flow cytometry fluorescence (name not given) was found to be 438 with human podocalyxin [22] and 574 with human podocalyxin [23].

In the case of Control Rb/HuIgG1 (antibody), the Live cell GeoMean FL (geometric mean fluorescence units) in the assay with human podocalyxin [1] was determined as 644; with human podocalyxin [2], 477; in the assay with human podocalyxin [4] it was 667; in the assay with human podocalyxin [5], 653; with human podocalyxin [6] it was 657; with human podocalyxin [7], 767. In addition, the Live cell GeoMean FL (geometric mean fluorescence units) with human podocalyxin [8] was determined as 489; with human podocalyxin [9], 446; with human podocalyxin [10] it was 629. For the same substance, the values for the Q2-LR % of gated cells (FL4-H above the gate) in the assay with human podocalyxin [24] and in the assay with human podocalyxin [25] were 3.5% and 17.2%, respectively.

Source of the values: US20190367606A1 (CENTRE FOR DRUG RESEARCH AND DEVELOPMENT, published 2019).
